Article PMC9894219
Read-outs that look alike come from different tables or passages of the source.

B1: NBRE (dsDNA)
DNA 1: CCGAAAAGGTCATGCG
DNA 2: CGCATGACCTTTTCGG
B2: IR5 biotinylated (dsDNA)
DNA 1: AAAGGTCAAACTGTGACCTAT
DNA 2: ATAGGTCACAGTTTGACCTTT

Legend:
[1] = target: Nurr1258 (Nurr1 DBD-hinge-LBD) (UniProt P43354 258-598); assay: crystal structure
[2] = target: T1, Nurr1258 (in Nurr1258-RXRα98 heterodimer);RXRα98 (DBD-hinge-LBD) (human?;human?, UniProt P43354;P19793 258-598;98-462, |); assay: BLI
T1 sequence (P43354 258-598, chain 1 of 2): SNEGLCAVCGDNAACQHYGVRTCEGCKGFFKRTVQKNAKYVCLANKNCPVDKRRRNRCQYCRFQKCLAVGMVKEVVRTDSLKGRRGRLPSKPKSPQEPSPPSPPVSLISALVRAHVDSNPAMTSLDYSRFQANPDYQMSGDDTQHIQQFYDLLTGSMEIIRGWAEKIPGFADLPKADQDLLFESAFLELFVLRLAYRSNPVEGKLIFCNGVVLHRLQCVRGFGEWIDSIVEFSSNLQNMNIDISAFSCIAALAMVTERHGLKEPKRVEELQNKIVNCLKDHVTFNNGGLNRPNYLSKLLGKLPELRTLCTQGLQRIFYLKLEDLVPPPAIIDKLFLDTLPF
T1 sequence (P19793 98-462, chain 2 of 2): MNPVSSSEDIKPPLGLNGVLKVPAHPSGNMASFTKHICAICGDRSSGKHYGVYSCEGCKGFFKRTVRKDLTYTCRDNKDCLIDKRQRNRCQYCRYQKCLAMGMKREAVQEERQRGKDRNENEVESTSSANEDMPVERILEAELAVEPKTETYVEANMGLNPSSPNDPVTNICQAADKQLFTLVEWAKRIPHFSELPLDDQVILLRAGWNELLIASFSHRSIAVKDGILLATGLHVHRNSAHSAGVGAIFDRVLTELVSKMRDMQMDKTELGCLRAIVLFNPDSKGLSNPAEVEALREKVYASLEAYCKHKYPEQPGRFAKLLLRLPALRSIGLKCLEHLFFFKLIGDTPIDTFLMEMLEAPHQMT

[3] = target: T1, Nurr1258 (in Nurr1258-RXRα98 …); assay: BLI; remark: listed apart in the source

Chain of Nurr1258 (Nurr1 DBD-hinge-LBD) (P43354 258-598): as the sequence (P43354 258-598, chain 1 of 2) above

Row | Binder | binding result [1] | Kd [2] [nM] | Kd [3] [nM]
1 | B1 | binds |  | 
2 | B2 |  | 62.5 | 864
